This is an account of results in article PMC4820614.

In this test the target is T1, full-length rat TRPV2 (rat), Q9WUD2.
T1 chain: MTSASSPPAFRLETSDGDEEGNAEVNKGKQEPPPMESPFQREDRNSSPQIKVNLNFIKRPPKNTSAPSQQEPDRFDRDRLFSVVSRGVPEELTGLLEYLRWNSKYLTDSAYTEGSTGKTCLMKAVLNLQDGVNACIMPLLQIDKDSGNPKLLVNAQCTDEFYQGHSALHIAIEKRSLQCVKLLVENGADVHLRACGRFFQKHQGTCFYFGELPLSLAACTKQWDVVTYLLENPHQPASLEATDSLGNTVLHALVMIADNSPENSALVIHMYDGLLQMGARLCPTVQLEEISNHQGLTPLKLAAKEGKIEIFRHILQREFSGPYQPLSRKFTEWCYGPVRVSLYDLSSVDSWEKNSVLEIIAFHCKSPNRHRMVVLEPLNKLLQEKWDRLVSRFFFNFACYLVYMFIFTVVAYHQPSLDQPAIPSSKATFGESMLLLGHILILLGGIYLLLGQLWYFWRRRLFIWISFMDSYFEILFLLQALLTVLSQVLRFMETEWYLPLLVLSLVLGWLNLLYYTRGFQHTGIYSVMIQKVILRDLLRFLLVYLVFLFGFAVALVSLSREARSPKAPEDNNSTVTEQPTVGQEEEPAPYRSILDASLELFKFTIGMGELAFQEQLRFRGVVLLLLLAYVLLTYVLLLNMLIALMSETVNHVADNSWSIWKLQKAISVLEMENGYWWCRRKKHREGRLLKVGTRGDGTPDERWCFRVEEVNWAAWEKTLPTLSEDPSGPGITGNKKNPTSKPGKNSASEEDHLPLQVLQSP
Put plainly: cryo-EM structure; single particle cryo-EM of purified rat TRPV2 without ligand, 2.5 mg/ml, in decyl MNG, 150 mM NaCl, 20 mM HEPES pH 8.0, 1.0 mM DTT; no added lipids. The conditions noted are these: remark: other sources report otherwise.

B1: full-length rat TRPV2, Q9WUD2 1-761 (natural protein)
chain: T1 chain
The molecule B1 showed a stoichiometry N of 4.

The term stoichiometry N denotes the number of molecules, sites or subunits per partner or assembly.
